Key:
[1] = target: humanized PD-L1 polypeptide (human portion and endogenous mouse portion) on T cells of mice homozygous for the humanized CD274 gene of Example 1 (human; mouse) (UniProt Q9NZQ7); assay: flow cytometry, CD8+ T cells (CD3+CD8+) from spleen of humanized CD274 mouse, isotype control in α-hPD-L1 column
[2] = target: mouse PD-L1 polypeptide on T cells of wild-type mice (mouse) (UniProt Q9EP73); assay: flow cytometry, CD8+ T cells from spleen of wild-type mouse, isotype control in α-hPD-L1 column
UniProt Q9EP73, sequence (Q9EP73 19-290): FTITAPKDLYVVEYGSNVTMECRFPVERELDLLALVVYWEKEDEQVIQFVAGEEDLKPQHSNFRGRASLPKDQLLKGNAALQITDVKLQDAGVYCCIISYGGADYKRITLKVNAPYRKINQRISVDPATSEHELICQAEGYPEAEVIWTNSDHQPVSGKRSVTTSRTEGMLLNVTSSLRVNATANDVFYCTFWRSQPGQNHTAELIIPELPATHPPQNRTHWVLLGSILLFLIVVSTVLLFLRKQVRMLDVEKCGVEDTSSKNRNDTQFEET

[3] = target: mouse PD-L1 polypeptide on T cells of wild-type mice (mouse) (UniProt Q9EP73); assay: flow cytometry, CD4+ T cells from spleen of wild-type mouse, isotype control in α-hPD-L1 column
[4] = target: humanized PD-L1 polypeptide (human portion and endogenous mouse portion) on T cells of mice homozygous for the humanized CD274 gene of Example 1 (human; mouse) (UniProt Q9NZQ7); assay: flow cytometry, CD4+ T cells (CD3+CD4+) from spleen of humanized CD274 mouse, isotype control in α-hPD-L1 column
[5] = target: mouse PD-L1 polypeptide on T cells of wild-type mice (mouse) (UniProt Q9EP73); assay: flow cytometry, CD4+ T cells from spleen of wild-type mouse, isotype control in α-mPD-L1 column
[6] = target: humanized PD-L1 polypeptide (human portion and endogenous mouse portion) on T cells of mice homozygous for the humanized CD274 gene of Example 1 (human; mouse) (UniProt Q9NZQ7); assay: flow cytometry, CD8+ T cells (CD3+CD8+) from spleen of humanized CD274 mouse, isotype control in α-mPD-L1 column
[7] = target: humanized PD-L1 polypeptide (human portion and endogenous mouse portion) on T cells of mice homozygous for the humanized CD274 gene of Example 1 (human; mouse) (UniProt Q9NZQ7); assay: flow cytometry, CD4+ T cells (CD3+CD4+) from spleen of humanized CD274 mouse, isotype control in α-mPD-L1 column
[8] = target: mouse PD-L1 polypeptide on T cells of wild-type mice (mouse) (UniProt Q9EP73); assay: flow cytometry, CD8+ T cells from spleen of wild-type mouse, isotype control in α-mPD-L1 column
[9] = target: humanized PD-L1 polypeptide (human portion and endogenous mouse portion) on T cells of mice homozygous for the humanized CD274 gene of Example 1 (human; mouse) (UniProt Q9NZQ7); assay: flow cytometry, CD4+ T cells from spleen of humanized CD274 mouse, stimulated with anti-CD3/anti-CD28 for 72 hours
[10] = target: mouse PD-L1 polypeptide on T cells of wild-type mice (mouse) (UniProt Q9EP73); assay: flow cytometry, CD4+ T cells from spleen of wild-type mouse, stimulated with anti-CD3/anti-CD28 for 72 hours
[11] = target: mouse PD-L1 polypeptide on T cells of wild-type mice (mouse) (UniProt Q9EP73); assay: flow cytometry, CD8+ T cells from spleen of wild-type mouse, unstimulated
[12] = target: humanized PD-L1 polypeptide (human portion and endogenous mouse portion) on T cells of mice homozygous for the humanized CD274 gene of Example 1 (human; mouse) (UniProt Q9NZQ7); assay: flow cytometry, CD8+ T cells from spleen of humanized CD274 mouse, stimulated with anti-CD3/anti-CD28 for 72 hours
[13] = target: humanized PD-L1 polypeptide (human portion and endogenous mouse portion) on T cells of mice homozygous for the humanized CD274 gene of Example 1 (human; mouse) (UniProt Q9NZQ7); assay: flow cytometry, CD8+ T cells from spleen of humanized CD274 mouse, unstimulated
[14] = target: humanized PD-L1 polypeptide (human portion and endogenous mouse portion) on T cells of mice homozygous for the humanized CD274 gene of Example 1 (human; mouse) (UniProt Q9NZQ7); assay: flow cytometry, CD4+ T cells from spleen of humanized CD274 mouse, unstimulated
[15] = target: mouse PD-L1 polypeptide on T cells of wild-type mice (mouse) (UniProt Q9EP73); assay: flow cytometry, CD8+ T cells from spleen of wild-type mouse, stimulated with anti-CD3/anti-CD28 for 72 hours
[16] = target: mouse PD-L1 polypeptide on T cells of wild-type mice (mouse) (UniProt Q9EP73); assay: flow cytometry, CD4+ T cells from spleen of wild-type mouse, unstimulated

UniProt Q9NZQ7, sequence (Q9NZQ7 other isoform, or with tags, fused parts or gaps limits assumed): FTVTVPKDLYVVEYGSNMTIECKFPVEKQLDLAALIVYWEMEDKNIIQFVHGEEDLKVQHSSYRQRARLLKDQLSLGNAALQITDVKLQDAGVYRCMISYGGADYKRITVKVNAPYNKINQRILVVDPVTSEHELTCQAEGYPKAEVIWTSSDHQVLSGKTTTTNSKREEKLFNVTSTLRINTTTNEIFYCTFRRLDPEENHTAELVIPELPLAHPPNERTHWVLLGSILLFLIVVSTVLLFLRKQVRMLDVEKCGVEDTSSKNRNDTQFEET

| Mean Fluorescence Intensity [1] | Mean Fluorescence Intensity [2] | Mean Fluorescence Intensity [3] | Mean Fluorescence Intensity [4] | Mean Fluorescence Intensity [5] | Mean Fluorescence Intensity [6] | Mean Fluorescence Intensity [7] | Mean Fluorescence Intensity [8] | Mean Fluorescence Intensity [9] | Mean Fluorescence Intensity [10] | Mean Fluorescence Intensity [11] | Mean Fluorescence Intensity [12] | Mean Fluorescence Intensity [13] | Mean Fluorescence Intensity [14] | Mean Fluorescence Intensity [15] | Mean Fluorescence Intensity [16] | Substance |
| --- | --- | --- | --- | --- | --- | --- | --- | --- | --- | --- | --- | --- | --- | --- | --- | --- |
| 78 | 64 | -58 | -55 |  |  |  |  |  |  |  |  |  |  |  |  | Isotype control (α-hPD-L1 columns of Table 5) (antibody) |
|  |  |  |  | -39 | 84 | -52 | 64 |  |  |  |  |  |  |  |  | Isotype control (α-mPD-L1 columns of Table 5) (antibody) |
|  |  |  |  |  |  |  |  | 457 | 22 | 62 | 384 | 271 | 114 | 113 | -45 | anti-human PD-L1 antibody, clone MIH1 (BD Biosciences) |
|  |  |  |  |  |  |  |  | 155 | 2800 | 712 | 276 | 160 | 61 | 3170 | 538 | anti-mouse PD-L1 antibody, clone 10F.9G2 (eBioscience) |

From patent US20210105983A1
